Test results reported in publication doi:10.1101/2024.02.28.582571.

Target: microtubules assembled from purified bovine brain tubulin (bovine) (UniProt Q6B856)
Experiment: optical trap rupture force assay; kinetochores held on polystyrene beads through α-penta-His antibody; dynamic microtubules grown from coverslip-anchored GMPCPP seeds with bovine brain tubulin in BRB80, 1 mM GTP; 23 °C; force ramp 0.25 pN/s

Chain of UniProt Q6B856 (Q6B856 whole entry, looked up): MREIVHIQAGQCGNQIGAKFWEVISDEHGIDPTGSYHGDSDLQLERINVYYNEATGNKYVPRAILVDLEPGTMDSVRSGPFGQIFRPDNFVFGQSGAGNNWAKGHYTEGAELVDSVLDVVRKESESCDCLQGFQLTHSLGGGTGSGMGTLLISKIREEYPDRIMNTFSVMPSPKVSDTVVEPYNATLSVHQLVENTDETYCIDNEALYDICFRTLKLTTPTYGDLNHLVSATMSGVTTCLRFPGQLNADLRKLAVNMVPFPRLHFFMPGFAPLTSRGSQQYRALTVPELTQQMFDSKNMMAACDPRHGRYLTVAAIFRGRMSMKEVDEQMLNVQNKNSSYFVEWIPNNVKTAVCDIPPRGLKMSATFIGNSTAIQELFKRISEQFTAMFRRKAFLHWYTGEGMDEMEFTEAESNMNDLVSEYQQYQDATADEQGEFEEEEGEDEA

median rupture force [pN]	Substance
7.5	native kinetochores purified from Kluyveromyces marxianus via Dsn1-6His-3M3DK (from UniProt A0ABX6F0Z3 1-547) (complex)
7.2	native kinetochores purified from Saccharomyces cerevisiae via Dsn1-6His-3M3DK (from UniProt P40568 1-576) (complex)
